Source: patent US20230340081A1 (Hoffmann-La Roche, published 2023)

What was measured:
[1] = target: T1, consensus S-HBs protein of HBV genotype D (ConsHBAg_D) (hepatitis B virus genotype D (consensus), UniProt P03138 164-389); experiment: flow cytometry, S-HBs-transfected 293-F cells
T1 construct: also called genotype D S-HBs; ConsD S-HBs

[2] = target: genotype D S-HBs mutant protein N146S (hepatitis B virus genotype D, UniProt P03138 164-389); experiment: flow cytometry, S-HBs-transfected 293-F cells
[3] = target: T2, consensus S-HBs protein of HBV genotype A (ConsHBAg_A) (hepatitis B virus genotype A (consensus), UniProt P03141 175-400); experiment: flow cytometry, S-HBs-transfected 293-F cells
T2 construct: also called genotype A S-HBs

[4] = target: genotype D S-HBs mutant protein M133T (hepatitis B virus genotype D, UniProt P03138 164-389); experiment: flow cytometry, S-HBs-transfected 293-F cells
[5] = target: T3, consensus S-HBs protein of HBV genotype G (ConsHBAg_G) (hepatitis B virus genotype G (consensus), UniProt Q9IBI3 174-399); experiment: flow cytometry, S-HBs-transfected 293-F cells
T3 construct: also called genotype G S-HBs

[6] = target: genotype D S-HBs mutant protein G145R (hepatitis B virus genotype D, UniProt P03138 164-389); experiment: flow cytometry, S-HBs-transfected 293-F cells
[7] = target: T4, consensus S-HBs protein of HBV genotype I (ConsHBAg_I) (hepatitis B virus genotype I (consensus), UniProt P31873 175-400); experiment: flow cytometry, S-HBs-transfected 293-F cells
T4 construct: also called genotype I S-HBs
T4 chain: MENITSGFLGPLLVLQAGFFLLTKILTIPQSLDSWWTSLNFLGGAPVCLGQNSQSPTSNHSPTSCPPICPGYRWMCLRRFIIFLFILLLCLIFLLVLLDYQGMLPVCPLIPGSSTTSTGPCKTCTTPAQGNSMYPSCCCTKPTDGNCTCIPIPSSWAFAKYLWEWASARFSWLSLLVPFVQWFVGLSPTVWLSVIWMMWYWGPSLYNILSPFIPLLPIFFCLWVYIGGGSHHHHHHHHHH

[8] = target: genotype D S-HBs mutant protein Y134V (hepatitis B virus genotype D, UniProt P03138 164-389); experiment: flow cytometry, S-HBs-transfected 293-F cells
[9] = target: T5, consensus S-HBs protein of HBV genotype B (ConsHBAg_B) (hepatitis B virus genotype B (consensus), UniProt Q9PWW3 175-400); experiment: flow cytometry, S-HBs-transfected 293-F cells
T5 construct: also called genotype B S-HBs

[10] = target: T6, consensus S-HBs protein of HBV genotype C (ConsHBAg_C) (hepatitis B virus genotype C (consensus), UniProt P03140 175-400); experiment: flow cytometry, S-HBs-transfected 293-F cells
T6 construct: also called genotype C S-HBs

[11] = target: genotype D S-HBs mutant protein T126A (hepatitis B virus genotype D, UniProt P03138 164-389); experiment: flow cytometry, S-HBs-transfected 293-F cells
[12] = target: T7, consensus S-HBs protein of HBV genotype H (ConsHBAg_H) (hepatitis B virus genotype H (consensus), UniProt Q8JMZ6 175-400); experiment: flow cytometry, S-HBs-transfected 293-F cells
T7 construct: also called genotype H S-HBs

[13] = target: T8, consensus S-HBs protein of HBV genotype E (ConsHBAg_E) (hepatitis B virus genotype E (consensus), UniProt Q69603 174-399); experiment: flow cytometry, S-HBs-transfected 293-F cells
T8 construct: also called genotype E S-HBs
T8 chain: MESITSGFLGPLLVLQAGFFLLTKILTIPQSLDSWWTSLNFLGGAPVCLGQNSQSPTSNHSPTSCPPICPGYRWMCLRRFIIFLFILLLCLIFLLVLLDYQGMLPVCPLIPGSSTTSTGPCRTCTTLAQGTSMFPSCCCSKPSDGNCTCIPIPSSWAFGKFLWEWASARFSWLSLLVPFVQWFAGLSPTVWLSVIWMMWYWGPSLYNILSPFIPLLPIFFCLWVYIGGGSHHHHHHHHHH

[14] = target: T9, consensus S-HBs protein of HBV genotype F (ConsHBAg_F) (hepatitis B virus genotype F (consensus), UniProt Q05496 175-400); experiment: flow cytometry, S-HBs-transfected 293-F cells
T9 construct: also called genotype F S-HBs

[15] = target: T10, Ayw S-HBs protein (ayw HBsAg particles, Engerix-B (Ayw)) (hepatitis B virus, ayw subtype); experiment: ELISA, AUC of binding curve; parameters: unit not given beside the values
[16] = target: T11, Adw S-HBs protein (adw HBsAg particles, GenHevac (Adw)) (hepatitis B virus, adw subtype); experiment: ELISA, AUC of binding curve; parameters: unit not given beside the values
T11 construct: also called GenHevac-B

[17] = target: T10, Ayw S-HBs protein (ayw HBsAg particles, …); experiment: ELISA on recombinant HBV vaccine particles
Description: (§1) After washings with 0.05% Tween 20-PBS (PBST), plates were blocked 2 h with 2% BSA, 1 mM EDTA-PBST (Blocking solution), washed, and incubated with serially diluted purified serum IgG and recombinant monoclonal antibodies in PBS. For sandwich ELISAs, plates were coated overnight with purified IgG antibodies (250 ng/well in PBS), and treated as afore-mentioned prior to incubation with biotylinated-rS-HBs (100 ng/well in PBS) in PBS. […] Experiments were performed using HydroSpeed™ microplate washer and Sunrise™ microplate absorbance reader (Tecan Männedorf), with optical density measurements made at 405 nm (OD₄₀₅ₙₘ). […] All antibodies were tested in duplicate or triplicate in at least two independent experiments, which included mGO53 negative and appropriate positive controls.

[18] = target: T11, Adw S-HBs protein (adw HBsAg particles, …); experiment: ELISA on recombinant HBV vaccine particles
Description: as §1

[19] = target: T2, consensus S-HBs protein of HBV genotype …; experiment: flow cytometry on cells expressing genotype-specific S-HBs
[20] = target: T3, consensus S-HBs protein of HBV genotype …; experiment: as above
[21] = target: T4, consensus S-HBs protein of HBV genotype …; experiment: as above
[22] = target: T5, consensus S-HBs protein of HBV genotype …; experiment: as above
[23] = target: T6, consensus S-HBs protein of HBV genotype …; experiment: as above
[24] = target: T7, consensus S-HBs protein of HBV genotype …; experiment: as above
[25] = target: T9, consensus S-HBs protein of HBV genotype …; experiment: as above

T9 sequence (Q05496 175-400, tags left off): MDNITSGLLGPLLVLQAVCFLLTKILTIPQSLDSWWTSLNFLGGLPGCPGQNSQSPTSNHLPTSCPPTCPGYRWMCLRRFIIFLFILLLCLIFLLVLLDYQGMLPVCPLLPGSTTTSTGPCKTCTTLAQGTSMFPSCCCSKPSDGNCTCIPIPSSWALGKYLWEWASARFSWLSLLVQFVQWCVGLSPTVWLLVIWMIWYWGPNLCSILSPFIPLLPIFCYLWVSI
T7 sequence (Q8JMZ6 175-400, tags left off): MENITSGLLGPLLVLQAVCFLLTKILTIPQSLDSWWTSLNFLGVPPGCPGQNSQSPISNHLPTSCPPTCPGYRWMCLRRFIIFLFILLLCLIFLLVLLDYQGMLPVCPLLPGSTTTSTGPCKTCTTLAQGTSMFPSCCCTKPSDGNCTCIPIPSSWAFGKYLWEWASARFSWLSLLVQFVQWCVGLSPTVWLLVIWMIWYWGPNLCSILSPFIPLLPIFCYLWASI

B1: Bv4.104 (antibody)
heavy: not shown
light: QSALTQPASVSGSPGQSITISCTGTSSDVGNYKSVSWYQHHPGKAPKFMIYEGTQRPSGVSNRFSGSKSGNTASLTISGLQAEDEAHYYCCSYAGSSTWLFGGGTKLTVLGQPKAAPSVTLFPPSSEELQANKATLVCLISDFYPGAVTVAWKADSSPVKAGVETTTPSKQSNNKYAASSYLSLTPEQWKSHRSYSCQVTHEGSTVEKTVAPTECS
notes: also called PIBv4.104
B1 was tested, and the “% of bound S-HBs-expressing cells” value [1] was 73%, the “% of bound S-HBs-expressing cells” value [2] was 63% and the “% of bound S-HBs-expressing cells” value [3] was 1%. The “% of bound S-HBs-expressing cells” value [4] was 64%, the “% of bound S-HBs-expressing cells” value [5] was 1% and the “% of bound S-HBs-expressing cells” value [6] was 54%. For the same binder, the “% of bound S-HBs-expressing cells” value [7] was 1%, the “% of bound S-HBs-expressing cells” value [8] was 60% and the “% of bound S-HBs-expressing cells” value [9] was 1%. For the same binder, the “% of bound S-HBs-expressing cells” value [10] was 5%, the “% of bound S-HBs-expressing cells” value [11] was 64% and the “% of bound S-HBs-expressing cells” value [12] was 1%. The “% of bound S-HBs-expressing cells” value [13] was 73%, the “% of bound S-HBs-expressing cells” value [14] was 1% and the “AUC (serotype binding)” value [15] was 37. The “AUC (serotype binding)” value [16] was 7, the EC50 [17] was 0.0046 mg/L and the EC50 [18] was 6.58 mg/L. B1: no binding [19]; no binding [20]; no binding [21]. B1: no binding [22]; no binding [23]; no binding [24]. B1: no binding [25].
